Measurements reported in publication PMC12848141.
Values belong to the molecule of their own block, whether it stands above or below them.

Experiments:
[1] = molecular target: OGT (UniProt O15294); experiment: co-IP of HA-YTHDF2 and Myc-OGT; conditions: reference: HA-YTHDF2 wild type; sites S39
[2] = O-GlcNAc at T49
[3] = molecular target: OGT (UniProt O15294); experiment: co-IP in H1299 cells; conditions: reference: YTHDF2 wild type; sites S39
[4] = anti-pS39 blot, H1299; conditions: glycan lost; control: HA-YTHDF2-WT
[5] = anti-ubiquitin blot, H1299; conditions: glycan lost; control: HA-YTHDF2-WT
[6] = anti-HA IP, anti-pS39 blot, 293T
[7] = CHX pulse-chase, protein remaining, H1299; conditions: glycan lost; control: HA-YTHDF2-WT
[8] = CHX pulse-chase, protein remaining, HEK-293T; conditions: glycan lost; control: HA-YTHDF2-WT
[9] = anti-HA IP, anti-ubiquitin blot, 293T, MG132; conditions: glycan lost; control: HA-YTHDF2-WT

- binding against the reference [1]: stronger
Molecule: YTHDF2 (from UniProt Q9Y5A9) HA-YTHDF2-S39A

Molecule: YTHDF2: OGA overexpression
- other [2]: decreases

Molecule: YTHDF2: TMG plus glucose (OGA inhibition, raises O-GlcNAcylation)
- other [2]: decreases

Molecule: YTHDF2: Flag-OGA overexpression
- other [2]: decreases, YTHDF2 ubiquitination, Ub/HA ratio ~0.5 vs 1.0 without OGA (read from plot, P < 0.05)

- binding against the reference [3]: stronger
Molecule: YTHDF2 (from UniProt Q9Y5A9) YTHDF2-S39A

B1: YTHDF2: T49A (protein)
parent chain: MSASSLLEQRPKGQGNKVQNGSVHQKDGLNDDDFEPYLSPQARPNNAYTAMSDSYLPSYYSPSIGFSYSLGEAAWSTGGDTAMPYLTSYGQLSNGEPHFLPDAMFGQPGALGSTPFLGQHGFNFFPSGIDFSAWGNNSSQGQSTQSSGYSSNYAYAPSSLGGAMIDGQSAFANETLNKAPGMNTIDQGMAALKLGSTEVASNVPKVVGSAVGSGSITSNIVASNSLPPATIAPPKPASWADIASKPAKQQPKLKTKNGIAGSSLPPPPIKHNMDIGTWDNKGPVAKAPSQALVQNIGQPTQGSPQPVGQQANNSPPVAQASVGQQTQPLPPPPPQPAQLSVQQQAAQPTRWVAPRNRGSGFGHNGVDGNGVGQSQAGSGSTPSEPHPVLEKLRSINNYNPKDFDWNLKHGRVFIIKSYSEDDIHRSIKYNIWCSTEHGNKRLDAAYRSMNGKGPVYLLFSVNGSGHFCGVAEMKSAVDYNTCAGVWSQDKWKGRFDVRWIFVKDVPNSQLRHIRLENNENKPVTNSRDTQEVPLEKAKQVLKIIASYKHTTSIFDDFSHYEKRQEEEESVKKERQGRGK
- other: Ser-39 phosphorylation [4]: increases
- other: ubiquitination [5]: decreases
- other: Ser-39 phosphorylation ([6]; glycan lost, control: HA-YTHDF2-WT): increases
- degradation_or_half_life [7]: increases
- degradation_or_half_life [8]: increases
- other: ubiquitination [9]: decreases

B2: YTHDF2: TMG plus glucose (protein)
parent chain: MSASSLLEQRPKGQGNKVQNGSVHQKDGLNDDDFEPYLSPQARPNNAYTAMSDSYLPSYYSPSIGFSYSLGEAAWSTGGDTAMPYLTSYGQLSNGEPHFLPDAMFGQPGALGSTPFLGQHGFNFFPSGIDFSAWGNNSSQGQSTQSSGYSSNYAYAPSSLGGAMIDGQSAFANETLNKAPGMNTIDQGMAALKLGSTEVASNVPKVVGSAVGSGSITSNIVASNSLPPATIAPPKPASWADIASKPAKQQPKLKTKNGIAGSSLPPPPIKHNMDIGTWDNKGPVAKAPSQALVQNIGQPTQGSPQPVGQQANNSPPVAQASVGQQTQPLPPPPPQPAQLSVQQQAAQPTRWVAPRNRGSGFGHNGVDGNGVGQSQAGSGSTPSEPHPVLEKLRSINNYNPKDFDWNLKHGRVFIIKSYSEDDIHRSIKYNIWCSTEHGNKRLDAAYRSMNGKGPVYLLFSVNGSGHFCGVAEMKSAVDYNTCAGVWSQDKWKGRFDVRWIFVKDVPNSQLRHIRLENNENKPVTNSRDTQEVPLEKAKQVLKIIASYKHTTSIFDDFSHYEKRQEEEESVKKERQGRGK
- other: Ser-39 phosphorylation ([6]; glycan gained, control: untreated cells): decreases
